In the Human Domainome abundance scans (Beltran et al. 2025) one finds abundance fitness data, which are given here for 167 variants.

± gives the uncertainty stated by the source.

B1: POU domain, class 2, transcription factor 2, residues 200 to 269; numbered along this chain, P09086 (parent)
chain: LEELEQFARTFKQRRIKLGFTQGDVGLAMGKLYGNDFSQTTISRFEALNLSFKNMCKLKPLLEKWLNDAE
B2: Max-interacting protein 1, residues 70 to 120; numbered along this chain, P50539 (parent)
chain: STHNELEKNRRAHLRLCLERLKVLIPLGPDCTRHTTLGLLNKAKAHIKKLE

Variants of B1 are the subject of one data set. Put plainly: abundance fitness (aPCA) (normalised: wild type 0, dead -1); higher = more abundant; growth selection in yeast, the domain comes from the species named. The following applies: Homo sapiens.
For Q6L, the abundance fitness was -0.066 ± 0.041.
With Q6R, the abundance fitness was -0.019 ± 0.034.
Still for that read-out and setting: as for Q6S, the figure is 0.001 ± 0.06.
On the same count and under the same terms, as for Q6M, the figure is 0.027 ± 0.052; as for Q6H, -0.236 ± 0.1.
Consider Q6N, for which the abundance fitness was -0.141 ± 0.089.
Same read-out and setting: as for Q6G, the figure is -0.048 ± 0.04.
For the variant Q6P, the abundance fitness was -0.151 ± 0.067.
With Q6V, the abundance fitness is -0.05 ± 0.043.
The same measure, in the same setting: as for Q6F, the figure is -0.086 ± 0.15; as for Q6I, -0.028 ± 0.095.
The same measure, in the same setting: then Q6W, with -0.086 ± 0.056; and Q6T, with 0.003 ± 0.052; and Q6D, with 0.001 ± 0.18.
Same read-out and setting: as for Q6K, the figure is 0.079 ± 0.055.
For the variant Q6E, the abundance fitness is -0.045 ± 0.047.
The same measure, in the same setting: as for Q6A, the figure is -0.095 ± 0.049.
E5W: the abundance fitness was -0.073 ± 0.054.
Still for that read-out and setting: as for E5M, the figure is 0.048 ± 0.08.
In the case of E5C, the abundance fitness is -0.07 ± 0.08.
On the same count and under the same terms, then E5H, with 0.074 ± 0.2; and E5D, with -0.051 ± 0.083.
Regarding E5A, the abundance fitness stood at 0.005 ± 0.042.
The same measure, in the same setting: then E5V, with -0.052 ± 0.036; and E5Y, with -0.161 ± 0.11.
Same read-out and setting: as for E5F, the figure is -0.214 ± 0.2.
Regarding E5G, the abundance fitness was -0.034 ± 0.037.
Still for that read-out and setting: then E5N, with -0.224 ± 0.15; and E5Q, with -0.057 ± 0.071; and E5I, with -0.293 ± 0.098.
In the case of E5P, the abundance fitness is -0.5 ± 0.089.
Turning to E5R, the abundance fitness is 0 ± 0.042.
Regarding E5L, the abundance fitness was -0.093 ± 0.044.
Consider E2C, for which the abundance fitness was -0.699 ± 0.28.
The same measure, in the same setting: as for E2P, the figure is -0.689 ± 0.19.
Same read-out and setting: as for E2Q, the figure is -0.171 ± 0.17; as for E2A, -0.14 ± 0.092.
Take E2K: the abundance fitness was -0.02 ± 0.16.
Same read-out and setting: as for E2T, the figure is -0.274 ± 0.094; as for E2R, -0.066 ± 0.13.
Regarding E2D, the abundance fitness is 0.054 ± 0.097.
E2G: the abundance fitness is -0.046 ± 0.086.
For E2V, the abundance fitness is -0.062 ± 0.046.
Still for that read-out and setting: as for E2H, the figure is -0.366 ± 0.094; as for E2N, 0.259 ± 0.3; as for E2Y, -0.106 ± 0.24.
Regarding E2M, the abundance fitness turned out to be 0.173 ± 0.095.
Same read-out and setting: as for E2W, the figure is 0.039 ± 0.11.
Take E3R: the abundance fitness was -0.162 ± 0.034.
Same read-out and setting: as for E3W, the figure is -0.263 ± 0.027.
On to E3A, for which the abundance fitness was -0.123 ± 0.035.
Consider E3T, for which the abundance fitness is -0.159 ± 0.061.
The same measure, in the same setting: then E3C, with -0.187 ± 0.065; and E3K, with -0.189 ± 0.083; and E3V, with -0.085 ± 0.054.
The same measure, in the same setting: as for E3Q, the figure is -0.003 ± 0.061; as for E3N, -0.107 ± 0.085; as for E3I, -0.078 ± 0.086.
Same read-out and setting: as for E3F, the figure is -0.208 ± 0.1.
With E3L, the abundance fitness was -0.137 ± 0.036.
Turning to E3Y, the abundance fitness was -0.127 ± 0.072.
Turning to E3G, the abundance fitness is -0.154 ± 0.041.
Consider E3M, for which the abundance fitness is -0.443 ± 0.18.
On the same count and under the same terms, as for E3P, the figure is -0.76 ± 0.071; as for E3D, -0.087 ± 0.14; as for L4P, -0.367 ± 0.055.
Regarding L4R, the abundance fitness is -0.485 ± 0.038.
On the same count and under the same terms, then L4F, with -0.055 ± 0.067; and L4Q, with -0.233 ± 0.07.
As for L4A, the abundance fitness is -0.181 ± 0.045.
Still for that read-out and setting: as for L4D, the figure is -0.64 ± 0.19; as for L4H, 0.052 ± 0.18.
Still for that read-out and setting: then L4G, with -0.655 ± 0.058; and L4K, with -0.797 ± 0.12; and L4V, with -0.08 ± 0.039.
The same measure, in the same setting: then L4W, with -0.201 ± 0.04; and L4I, with 0.012 ± 0.1.
For the variant L4E, the abundance fitness was -0.523 ± 0.078.
The same measure, in the same setting: then L4S, with -0.253 ± 0.055; and L4C, with -0.784 ± 0.11.
The same measure, in the same setting: then L4N, with -0.763 ± 0.38; and L4T, with -0.11 ± 0.048; and L4M, with -0.032 ± 0.059.
The same measure, in the same setting: as for L4Y, the figure is -0.408 ± 0.19.
L1W: the abundance fitness is -0.051 ± 0.087.
Still for that read-out and setting: then L1S, with -0.027 ± 0.12; and L1D, with -0.279 ± 0.19.
Consider L1F, for which the abundance fitness is -0.028 ± 0.13.
Still for that read-out and setting: as for L1M, the figure is -0.081 ± 0.094; as for L1N, 0.008 ± 0.21; as for L1T, 0.016 ± 0.18.
Take L1C: the abundance fitness was -0.496 ± 0.34.
L1G: the abundance fitness is 0.01 ± 0.078.
On to L1I, for which the abundance fitness is -0.11 ± 0.46.
The same measure, in the same setting: then L1V, with -0.061 ± 0.073.
Still for that read-out and setting: then L1R, with -0.169 ± 0.086.

In the next data set the parent is B2. The data set is described as above. The note with it: Homo sapiens.
Regarding I25Q, the abundance fitness is -0.561 ± 0.17.
On the same count and under the same terms, as for I25F, the figure is -0.141 ± 0.13; as for L18K, -0.515 ± 0.11; as for T32A, 0.163 ± 0.086.
On the same count and under the same terms, as for T32H, the figure is -0.168 ± 0.12; as for T32R, -0.137 ± 0.075.
Same read-out and setting: then T35P, with -0.103 ± 0.1.
A43T: the abundance fitness is -0.339 ± 0.11.
Take L16A: the abundance fitness was -0.05 ± 0.1.
Same read-out and setting: then L16P, with -0.126 ± 0.14.
On the same count and under the same terms, then H3P, with 0.018 ± 0.12; and H13Q, with -0.086 ± 0.12; and E19N, with 0.202 ± 0.16.
The same measure, in the same setting: then E19V, with -0.999 ± 0.11; and L21M, with -0.358 ± 0.15; and R33A, with -0.338 ± 0.096.
Turning to R33N, the abundance fitness was -0.372 ± 0.15.
The same measure, in the same setting: as for D30H, the figure is 0.031 ± 0.078; as for A12F, -0.826 ± 0.19.
The same measure, in the same setting: then V23E, with 0.096 ± 0.17; and V23Y, with -0.062 ± 0.14; and V23A, with 0.488 ± 0.11.
Same read-out and setting: then P26Y, with -0.626 ± 0.23; and P26T, with 0.369 ± 0.12; and L37G, with -0.107 ± 0.089.
Regarding L37R, the abundance fitness was determined as 0.253 ± 0.089.
On the same count and under the same terms, as for L37H, the figure is -0.399 ± 0.25; as for L37D, -0.375 ± 0.15.
Same read-out and setting: as for L37N, the figure is -0.292 ± 0.21.
On to H34N, for which the abundance fitness was found to be 0.052 ± 0.15.
Take A45R: the abundance fitness was -0.167 ± 0.087.
Take A45M: the abundance fitness is -0.276 ± 0.12.
The same measure, in the same setting: as for A45C, the figure is -0.25 ± 0.17.
On the same count and under the same terms, then T36K, with -0.091 ± 0.15.
Same read-out and setting: as for T36Q, the figure is -0.199 ± 0.13.
For K49L, the abundance fitness was -0.386 ± 0.094.
Same read-out and setting: as for K49F, the figure is -0.045 ± 0.19; as for K48C, -0.311 ± 0.14.
In the case of K48V, the abundance fitness was -0.846 ± 0.096.
In the case of N4C, the abundance fitness is -0.33 ± 0.13.
Still for that read-out and setting: as for I47D, the figure is -0.761 ± 0.15.
The same measure, in the same setting: as for K22E, the figure is -0.885 ± 0.15; as for P29W, 0.519 ± 0.11; as for P29A, 0.466 ± 0.11.
Same read-out and setting: as for N41R, the figure is -0.044 ± 0.1.
For the variant L39D, the abundance fitness was -1.11 ± 0.23.
The same measure, in the same setting: then L39S, with -0.707 ± 0.11; and K42Q, with -0.44 ± 0.13.
The same measure, in the same setting: as for K42E, the figure is -0.716 ± 0.17; as for G38W, -0.265 ± 0.092; as for G38S, -0.087 ± 0.089.
For G38M, the abundance fitness was 0.118 ± 0.12.
Regarding G38Y, the abundance fitness is -0.546 ± 0.18.
With L24R, the abundance fitness was determined as 0.013 ± 0.079.
On the same count and under the same terms, as for C17N, the figure is -0.536 ± 0.28.
Same read-out and setting: as for E51R, the figure is 0.452 ± 0.15.
Same read-out and setting: as for E51I, the figure is -0.459 ± 0.47; as for E51T, 0.462 ± 0.16; as for E51N, 0.504 ± 0.18.
As to L50W, the abundance fitness worked out at 0.023 ± 0.096.
Same read-out and setting: as for L6P, the figure is 0.36 ± 0.16; as for C31G, 0.027 ± 0.072.
As for G28M, the abundance fitness is 0.074 ± 0.11.
Same read-out and setting: then R15A, with -0.211 ± 0.11; and R20N, with -0.335 ± 0.28; and T2P, with -0.35 ± 0.078.
The same measure, in the same setting: then R11C, with -0.256 ± 0.23; and R11H, with -0.13 ± 0.13; and E7C, with -0.267 ± 0.11.
In the case of E5P, the abundance fitness was -0.15 ± 0.11.
The same measure, in the same setting: as for E5G, the figure is -0.244 ± 0.1.
